Laboratory results: article PMC6294562

Target: thrombin (alpha-thrombin) (UniProt P00734;P00734 328-363;364-622)
Test: X-ray crystallography

CGCCTAGGTTGGGTAGGGTGGTGGCG (structured_DNA) [NU172 (ARC2172)]: binds.
